Results as given in patent US20030165887A1 (BURNHAM INSTITUTE, published 2003).

Tests used:
Experiment in all cases: co-immunoprecipitation, transfected HEK293T cells, SDS-PAGE/immunoblot
Apaf1 = target: T1, Apaf1 (human, UniProt O14727 1-1248)
T1 sequence: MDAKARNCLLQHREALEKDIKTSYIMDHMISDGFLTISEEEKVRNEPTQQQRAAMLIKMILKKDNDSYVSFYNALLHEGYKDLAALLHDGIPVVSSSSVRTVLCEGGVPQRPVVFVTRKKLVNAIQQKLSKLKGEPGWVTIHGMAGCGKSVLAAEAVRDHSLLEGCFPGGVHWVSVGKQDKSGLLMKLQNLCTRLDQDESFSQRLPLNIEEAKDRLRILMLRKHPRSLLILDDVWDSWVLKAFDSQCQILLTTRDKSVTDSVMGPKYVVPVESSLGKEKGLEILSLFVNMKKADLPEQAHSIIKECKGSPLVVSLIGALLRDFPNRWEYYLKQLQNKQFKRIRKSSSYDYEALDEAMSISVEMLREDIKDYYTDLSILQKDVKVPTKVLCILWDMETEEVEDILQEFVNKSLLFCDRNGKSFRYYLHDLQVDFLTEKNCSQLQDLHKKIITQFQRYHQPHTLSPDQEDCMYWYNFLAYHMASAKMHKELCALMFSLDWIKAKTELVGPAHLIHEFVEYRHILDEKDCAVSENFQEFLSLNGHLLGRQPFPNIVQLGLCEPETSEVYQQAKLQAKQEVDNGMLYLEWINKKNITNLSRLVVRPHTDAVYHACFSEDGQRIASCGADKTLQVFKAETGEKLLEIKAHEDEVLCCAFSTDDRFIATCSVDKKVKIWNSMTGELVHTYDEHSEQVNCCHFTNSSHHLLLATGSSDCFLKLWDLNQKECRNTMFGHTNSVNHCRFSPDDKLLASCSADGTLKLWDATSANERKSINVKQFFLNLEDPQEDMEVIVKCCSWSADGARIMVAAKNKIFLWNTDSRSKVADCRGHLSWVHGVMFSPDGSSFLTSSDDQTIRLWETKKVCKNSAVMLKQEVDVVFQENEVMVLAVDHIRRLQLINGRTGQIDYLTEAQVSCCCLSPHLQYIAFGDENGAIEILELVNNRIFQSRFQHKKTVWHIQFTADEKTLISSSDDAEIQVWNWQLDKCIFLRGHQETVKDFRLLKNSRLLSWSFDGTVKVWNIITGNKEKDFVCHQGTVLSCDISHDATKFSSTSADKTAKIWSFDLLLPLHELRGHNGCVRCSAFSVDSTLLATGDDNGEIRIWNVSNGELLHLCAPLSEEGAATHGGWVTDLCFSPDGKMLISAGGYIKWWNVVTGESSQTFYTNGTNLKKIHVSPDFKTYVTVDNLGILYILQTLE
Procedure: (§1) The TUCAN polypeptides were expressed by transient transfection in HEK293T cells together with epitope-tagged pro-caspase-9 or other proteins. […] Cell lysates were prepared from transfected cells and immunoprecipitations were performed using anti-Flag or anti-Myc antibodies, followed by SDS-PAGE/immunoblot analysis.

pro-caspase-8 = pro-caspase-8 (UniProt Q14790 1-479, limits assumed)
Chain of pro-caspase-8 (Q14790 whole entry): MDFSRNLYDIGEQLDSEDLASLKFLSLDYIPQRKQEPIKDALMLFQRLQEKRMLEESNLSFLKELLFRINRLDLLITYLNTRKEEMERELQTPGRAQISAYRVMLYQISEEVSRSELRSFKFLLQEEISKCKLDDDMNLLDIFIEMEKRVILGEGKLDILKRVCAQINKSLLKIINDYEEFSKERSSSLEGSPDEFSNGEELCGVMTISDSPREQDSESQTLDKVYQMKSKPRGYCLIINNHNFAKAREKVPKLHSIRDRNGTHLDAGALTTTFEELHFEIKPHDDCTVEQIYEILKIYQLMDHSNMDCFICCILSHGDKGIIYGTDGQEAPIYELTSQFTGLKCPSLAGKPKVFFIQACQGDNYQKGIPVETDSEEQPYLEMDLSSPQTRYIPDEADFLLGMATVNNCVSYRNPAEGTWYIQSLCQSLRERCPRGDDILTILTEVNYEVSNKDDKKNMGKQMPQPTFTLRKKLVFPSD
Procedure: as §1

pro-caspase-10 = target: T2, pro-caspase-10 (UniProt Q92851 1-521, limits assumed)
T2 sequence (looked up): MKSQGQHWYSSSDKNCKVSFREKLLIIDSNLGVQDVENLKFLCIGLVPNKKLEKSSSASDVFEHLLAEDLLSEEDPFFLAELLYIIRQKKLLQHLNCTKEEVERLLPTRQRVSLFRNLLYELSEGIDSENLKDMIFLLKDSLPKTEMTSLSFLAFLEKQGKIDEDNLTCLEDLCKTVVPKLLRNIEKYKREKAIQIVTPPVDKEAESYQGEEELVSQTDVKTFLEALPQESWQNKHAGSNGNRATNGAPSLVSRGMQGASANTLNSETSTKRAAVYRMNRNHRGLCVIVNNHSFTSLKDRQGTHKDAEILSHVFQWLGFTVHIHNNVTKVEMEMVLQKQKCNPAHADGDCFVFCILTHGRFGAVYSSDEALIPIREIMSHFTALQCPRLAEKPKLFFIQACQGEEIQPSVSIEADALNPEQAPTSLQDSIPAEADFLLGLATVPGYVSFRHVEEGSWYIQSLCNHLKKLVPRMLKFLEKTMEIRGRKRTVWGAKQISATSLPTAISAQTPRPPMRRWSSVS
Procedure: as §1

CARD9 = target: T3, CARD9 (UniProt Q9H257 1-536, limits assumed)
T3 sequence (looked up): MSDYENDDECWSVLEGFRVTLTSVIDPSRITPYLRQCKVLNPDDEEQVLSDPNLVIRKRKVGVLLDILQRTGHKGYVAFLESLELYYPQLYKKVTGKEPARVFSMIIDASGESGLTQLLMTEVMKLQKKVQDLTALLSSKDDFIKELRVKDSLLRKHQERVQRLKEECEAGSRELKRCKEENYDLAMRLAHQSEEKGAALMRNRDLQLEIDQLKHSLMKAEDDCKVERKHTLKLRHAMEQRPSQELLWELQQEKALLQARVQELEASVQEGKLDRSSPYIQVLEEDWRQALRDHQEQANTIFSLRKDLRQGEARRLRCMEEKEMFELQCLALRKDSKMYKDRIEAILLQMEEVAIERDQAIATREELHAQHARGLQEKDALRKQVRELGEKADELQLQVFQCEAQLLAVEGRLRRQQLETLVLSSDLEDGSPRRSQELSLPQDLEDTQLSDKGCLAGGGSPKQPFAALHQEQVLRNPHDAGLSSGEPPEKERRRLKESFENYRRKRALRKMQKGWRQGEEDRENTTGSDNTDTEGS
Procedure: as §1

cIAP1 = cIAP1 (UniProt Q13490 1-618, limits assumed)
Chain of cIAP1 (Q13490 whole entry): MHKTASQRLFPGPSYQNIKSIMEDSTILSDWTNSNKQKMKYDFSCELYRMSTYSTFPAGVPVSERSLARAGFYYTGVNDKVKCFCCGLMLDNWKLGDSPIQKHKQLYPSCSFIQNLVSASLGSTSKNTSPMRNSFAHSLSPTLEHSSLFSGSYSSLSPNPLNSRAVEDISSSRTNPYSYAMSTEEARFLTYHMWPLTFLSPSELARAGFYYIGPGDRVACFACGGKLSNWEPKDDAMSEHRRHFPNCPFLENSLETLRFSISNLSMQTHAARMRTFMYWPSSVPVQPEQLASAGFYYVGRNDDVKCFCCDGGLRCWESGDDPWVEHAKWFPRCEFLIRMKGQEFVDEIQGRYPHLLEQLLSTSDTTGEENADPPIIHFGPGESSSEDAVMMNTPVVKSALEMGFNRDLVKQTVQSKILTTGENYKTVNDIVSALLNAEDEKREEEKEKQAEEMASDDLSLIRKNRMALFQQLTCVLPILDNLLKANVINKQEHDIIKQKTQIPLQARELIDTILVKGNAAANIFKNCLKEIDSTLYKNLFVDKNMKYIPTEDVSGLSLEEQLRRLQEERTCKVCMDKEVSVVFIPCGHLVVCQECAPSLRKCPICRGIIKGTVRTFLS
Procedure: as §1

cIAP2 = cIAP2 (Homo sapiens (Human), UniProt Q13489 1-604)
Chain of cIAP2 (Q13489 whole entry): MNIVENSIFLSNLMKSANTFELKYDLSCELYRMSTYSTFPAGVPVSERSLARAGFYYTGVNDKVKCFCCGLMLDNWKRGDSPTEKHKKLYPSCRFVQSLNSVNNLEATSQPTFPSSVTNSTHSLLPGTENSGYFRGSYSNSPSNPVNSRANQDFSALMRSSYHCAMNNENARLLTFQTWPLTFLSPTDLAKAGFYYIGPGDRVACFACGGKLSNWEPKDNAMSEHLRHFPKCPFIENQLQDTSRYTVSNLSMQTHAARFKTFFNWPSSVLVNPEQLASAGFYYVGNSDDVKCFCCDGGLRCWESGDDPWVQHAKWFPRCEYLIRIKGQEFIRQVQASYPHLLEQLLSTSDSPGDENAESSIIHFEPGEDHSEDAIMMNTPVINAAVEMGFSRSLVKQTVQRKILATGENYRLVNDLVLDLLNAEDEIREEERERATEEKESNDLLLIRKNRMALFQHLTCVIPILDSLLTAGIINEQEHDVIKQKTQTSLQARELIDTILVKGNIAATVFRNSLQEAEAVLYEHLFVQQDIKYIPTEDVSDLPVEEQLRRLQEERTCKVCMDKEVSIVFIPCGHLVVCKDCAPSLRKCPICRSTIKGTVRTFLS
Procedure: as §1

Measured: binding result

B1: TUCAN (Tumor Up-regulated CARD-containing Antagonist of Caspase Nine), full-length (other)
chain: MMRQRQSHYCSVLFLSVNYLGGTFPGDICSEENQIVSSYASKVCFEIEEDYKNRQFLGPEGNVDVELIDKSTNRYSVWFPTAGWYLWSATGLGFLVRDEVTVTIAFGSWSQHLALDLQHHEQWLVGGPLFDVTAEPEEAVAEIHLPHFISLQGEVDVSWFLVAHFKNEGMVLEHPARVEPFYAVLESPSFSLMGILLRIASGTRLSIPITSNTLIYYHPHPEDIKFHLYLVPSDALLTKAIDDEEDRFHGVRLQTSPPMEPLNFGSSYIVSNSANLKVMPKELKLSYRSPGEIQHFSKFYAGQMKEPIQLEITEKRHGTLVWDTEVKPVDLQLVAASAPPPFSGAAFVKENHRQLQARMGDLKGVLDDLQDNEVLTENEKELVEQEKTRQSKNEALLSMVEKKGDLALDVLFRSISERDPYLVSYLRQQNL
notes: Full-length TUCAN expressed by transient transfection in HEK293T cells; also called full-length TUCAN; CARD-X
no binding: all assays above
